This assay addresses hsc70 (constitutively expressed form of hsp70) (UniProt P11142). The experiment in a line: cell-based or functional assay.

Sequence of hsc70 (constitutively expressed form of hsp70) (P11142 whole entry): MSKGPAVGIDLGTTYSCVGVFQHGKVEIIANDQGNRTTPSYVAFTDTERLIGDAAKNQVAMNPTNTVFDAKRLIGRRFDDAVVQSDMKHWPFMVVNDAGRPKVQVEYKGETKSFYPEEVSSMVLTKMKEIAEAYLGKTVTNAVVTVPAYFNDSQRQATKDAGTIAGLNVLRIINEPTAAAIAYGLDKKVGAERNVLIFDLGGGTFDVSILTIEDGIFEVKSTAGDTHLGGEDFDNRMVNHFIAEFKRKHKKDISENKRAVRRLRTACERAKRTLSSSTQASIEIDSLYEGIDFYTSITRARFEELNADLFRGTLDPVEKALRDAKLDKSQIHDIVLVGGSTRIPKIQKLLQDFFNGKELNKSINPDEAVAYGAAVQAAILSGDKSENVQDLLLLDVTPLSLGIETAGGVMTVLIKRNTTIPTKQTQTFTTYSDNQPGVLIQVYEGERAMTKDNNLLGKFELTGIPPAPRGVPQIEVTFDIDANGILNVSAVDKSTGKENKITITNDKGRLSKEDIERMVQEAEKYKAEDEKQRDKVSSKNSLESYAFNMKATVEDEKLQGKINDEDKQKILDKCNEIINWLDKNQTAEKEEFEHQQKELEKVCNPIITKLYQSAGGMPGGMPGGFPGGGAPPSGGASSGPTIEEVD

In turn, “His-UBP (histidine tagged-UBP) (from UniProt O43765 1-313)” registered a decrease in hs70-dependent refolding of luciferase of 30%.

(Values after patent publication US20050233963A1.)
